For assay [1], the target named is somatostatin receptors in GH4 C1 cells. Briefly: radioligand filtration binding on crude GH4 C1 membranes, cells treated with antisense oligo for 24 hours.
For assay [2] the target is unchanged. Briefly: radioligand filtration binding on crude GH4 C1 membranes, sense oligo treated cells.
Assay [3] has the same target. As to the kind of experiment: radioligand filtration binding on crude GH4 C1 membranes, antisense-treated against vehicle and sense-treated cells.
Assay [4] shares this target. As to the kind of experiment: radioligand filtration binding on crude GH4 C1 membranes, vehicle-treated cells.

In assay [1], “[125I]tyr-somatostatin, S-14 (from UniProt P61278) (peptide)” yielded a [125I]tyr-somatostatin binding, antisense oligo treated cells of 166 fmol/mg. The same substance came in with a [125I]tyr-somatostatin binding (fmol/mg), sense oligo treated cells in assay [2] of 350 fmol/mg. Moreover, the decline in [125I]tyr-somatostatin binding after antisense treatment in assay [3] worked out at 60%. Moreover, the [125I]tyr-somatostatin binding (fmol/mg), vehicle-treated cells in assay [4] amounted to 408 fmol/mg.
